Measured values published in publication PMC9482650, “Quantitative fragmentomics allow affinity mapping of interactomes” (Nature Communications, 2022).
Each block holds one binder with its values, some of them ahead of it.

Tests used:
Assay in all cases: holdup assay
Design in all cases: key: below the threshold = too weak to quantify, mostly under pKd 3.1 to 4
APBA2_2, Q99767 = target: T1, APBA2_2, Q99767
T1 sequence (Q99767 654-744, limits assumed, looked up): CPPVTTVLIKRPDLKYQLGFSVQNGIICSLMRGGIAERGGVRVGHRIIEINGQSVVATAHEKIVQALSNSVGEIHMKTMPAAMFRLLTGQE

ARHGEF12, Q9NZN5-2 = target: ARHGEF12, Q9NZN5-2
ARHGEF12, Q9NZN5-2, sequence (Q9NZN5 other isoform, or with tags, fused parts or gaps): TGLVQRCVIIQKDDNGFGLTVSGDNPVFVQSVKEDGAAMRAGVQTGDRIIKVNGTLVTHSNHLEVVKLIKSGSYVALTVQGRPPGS

CARD11, Q9BXL7 = target: T2, CARD11, Q9BXL7
T2 sequence (Q9BXL7 662-765, limits assumed, looked up): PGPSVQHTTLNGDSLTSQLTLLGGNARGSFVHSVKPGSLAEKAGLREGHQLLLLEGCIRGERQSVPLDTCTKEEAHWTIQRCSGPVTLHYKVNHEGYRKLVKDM

CASK, O14936 = target: CASK, O14936
CASK, O14936, sequence (O14936 487-570): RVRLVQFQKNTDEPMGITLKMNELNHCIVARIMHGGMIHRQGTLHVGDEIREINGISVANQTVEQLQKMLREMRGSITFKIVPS

DFNB31_1, Q9P202 = target: T3, DFNB31_1, Q9P202
T3 sequence (Q9P202 135-233, limits assumed, looked up): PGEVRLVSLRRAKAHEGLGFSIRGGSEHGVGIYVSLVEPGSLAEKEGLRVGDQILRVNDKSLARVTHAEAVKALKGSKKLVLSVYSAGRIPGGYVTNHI

FRMPD2_2, Q68DX3 = target: FRMPD2_2, Q68DX3
FRMPD2_2, Q68DX3, sequence (Q68DX3 944-1038): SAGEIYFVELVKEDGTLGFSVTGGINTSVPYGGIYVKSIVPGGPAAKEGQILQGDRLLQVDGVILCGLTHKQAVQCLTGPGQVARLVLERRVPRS

GRID2IP_1, A4D2P6 = target: GRID2IP_1, A4D2P6
GRID2IP_1, A4D2P6, sequence (A4D2P6 1-87): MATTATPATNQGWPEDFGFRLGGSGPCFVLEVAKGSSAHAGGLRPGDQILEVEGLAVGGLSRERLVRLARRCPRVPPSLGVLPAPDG

GRID2IP_2, A4D2P6 = target: GRID2IP_2, A4D2P6
GRID2IP_2, A4D2P6, sequence (A4D2P6 272-370): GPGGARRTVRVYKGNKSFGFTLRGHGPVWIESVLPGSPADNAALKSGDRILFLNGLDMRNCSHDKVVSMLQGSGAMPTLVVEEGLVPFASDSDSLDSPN

GRIP1_2, Q9Y3R0 = target: T4, GRIP1_2, Q9Y3R0
T4 sequence (Q9Y3R0 145-248, limits assumed, looked up): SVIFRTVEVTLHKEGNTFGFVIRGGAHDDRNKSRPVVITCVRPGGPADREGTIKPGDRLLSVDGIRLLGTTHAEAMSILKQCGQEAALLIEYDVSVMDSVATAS

GRIP1_3, Q9Y3R0 = target: T5, GRIP1_3, Q9Y3R0
T5 sequence (Q9Y3R0 247-346, limits assumed, looked up): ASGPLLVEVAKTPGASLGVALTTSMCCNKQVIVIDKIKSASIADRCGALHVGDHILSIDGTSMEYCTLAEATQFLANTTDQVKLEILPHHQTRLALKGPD

GRIP1_7, Q9Y3R0 = target: T6, GRIP1_7, Q9Y3R0
T6 sequence (Q9Y3R0 999-1096, limits assumed, looked up): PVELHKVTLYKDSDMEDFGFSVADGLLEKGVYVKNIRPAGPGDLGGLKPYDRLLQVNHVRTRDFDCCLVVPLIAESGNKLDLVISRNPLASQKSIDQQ

GRIP2_4, Q9C0E4 = target: GRIP2_4, Q9C0E4
GRIP2_4, Q9C0E4, sequence (Q9C0E4 446-548): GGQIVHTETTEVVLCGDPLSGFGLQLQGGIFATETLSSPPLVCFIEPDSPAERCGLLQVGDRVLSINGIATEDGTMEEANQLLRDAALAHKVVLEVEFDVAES

IL16_1, Q14005 = target: IL16_1, Q14005
IL16_1, Q14005, sequence (Q14005 210-306): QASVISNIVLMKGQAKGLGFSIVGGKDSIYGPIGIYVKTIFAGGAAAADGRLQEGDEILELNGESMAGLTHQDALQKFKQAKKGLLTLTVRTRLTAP

Inadl_6, Q8NI35 = target: Inadl_6, Q8NI35
Inadl_6, Q8NI35, sequence (Q8NI35 1058-1167): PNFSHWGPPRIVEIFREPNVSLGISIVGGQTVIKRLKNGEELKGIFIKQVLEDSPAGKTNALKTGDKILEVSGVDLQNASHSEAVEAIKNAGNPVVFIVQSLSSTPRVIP

Inadl_9, Q8NI35 = target: Inadl_9, Q8NI35
Inadl_9, Q8NI35, sequence (Q8NI35 1530-1615): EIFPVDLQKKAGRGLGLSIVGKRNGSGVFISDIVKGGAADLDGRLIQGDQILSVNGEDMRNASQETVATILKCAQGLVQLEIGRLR

LIMK2, P53671 = target: LIMK2, P53671
LIMK2, P53671, sequence (P53671 143-248): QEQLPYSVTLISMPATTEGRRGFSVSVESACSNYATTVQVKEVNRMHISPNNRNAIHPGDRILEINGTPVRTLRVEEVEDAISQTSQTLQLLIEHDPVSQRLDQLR

LNX1_2, Q8TBB1 = target: LNX1_2, Q8TBB1
LNX1_2, Q8TBB1, sequence (Q8TBB1 371-470): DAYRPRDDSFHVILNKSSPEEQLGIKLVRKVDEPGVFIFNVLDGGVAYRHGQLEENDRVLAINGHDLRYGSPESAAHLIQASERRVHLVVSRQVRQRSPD

LNX2_3, Q8N448 = target: T7, LNX2_3, Q8N448
T7 sequence (Q8N448 463-564, limits assumed, looked up): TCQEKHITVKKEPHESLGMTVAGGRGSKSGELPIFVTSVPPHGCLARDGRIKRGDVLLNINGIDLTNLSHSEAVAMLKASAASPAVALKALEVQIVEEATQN

MAGI1_1, Q96QZ7 = target: MAGI1_1, Q96QZ7
MAGI1_1, Q96QZ7, sequence (Q96QZ7 1-106): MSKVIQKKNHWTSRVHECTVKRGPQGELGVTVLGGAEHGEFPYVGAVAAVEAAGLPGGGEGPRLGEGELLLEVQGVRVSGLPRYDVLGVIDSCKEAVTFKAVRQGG

MAGI2_2, Q86UL8 = target: MAGI2_2, Q86UL8
MAGI2_2, Q86UL8, sequence (Q86UL8 410-522): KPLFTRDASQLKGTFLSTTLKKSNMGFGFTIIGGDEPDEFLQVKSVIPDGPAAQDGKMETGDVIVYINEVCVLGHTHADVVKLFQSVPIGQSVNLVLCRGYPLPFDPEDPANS

MAGI2_5, Q86UL8 = target: MAGI2_5, Q86UL8
MAGI2_5, Q86UL8, sequence (Q86UL8 915-1017): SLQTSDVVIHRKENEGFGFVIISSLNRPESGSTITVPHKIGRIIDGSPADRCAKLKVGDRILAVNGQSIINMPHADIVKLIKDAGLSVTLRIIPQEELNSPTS

MPDZ_12, O75970 = target: T8, MPDZ_12, O75970
T8 sequence (O75970 1857-1958, limits assumed, looked up): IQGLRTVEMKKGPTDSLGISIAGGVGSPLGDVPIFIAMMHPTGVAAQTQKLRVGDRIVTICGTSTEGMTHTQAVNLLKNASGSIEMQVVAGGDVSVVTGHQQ

NHERF3_3, Q5T2W1 = target: T9, NHERF3_3, Q5T2W1
T9 sequence (Q5T2W1 238-333, limits assumed, looked up): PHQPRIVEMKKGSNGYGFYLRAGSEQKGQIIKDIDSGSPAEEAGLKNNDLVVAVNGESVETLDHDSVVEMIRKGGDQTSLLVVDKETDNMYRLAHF

NHERF4_4, Q86UT5 = target: NHERF4_4, Q86UT5
NHERF4_4, Q86UT5, sequence (Q86UT5 464-550): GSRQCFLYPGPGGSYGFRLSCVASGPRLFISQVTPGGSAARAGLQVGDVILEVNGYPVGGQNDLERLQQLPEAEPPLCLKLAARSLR

PDLIM1, O00151 = target: PDLIM1, O00151
PDLIM1, O00151, sequence (O00151 1-87): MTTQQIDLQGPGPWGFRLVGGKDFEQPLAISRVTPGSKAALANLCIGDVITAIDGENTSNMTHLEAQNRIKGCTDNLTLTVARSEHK

RADIL, Q96JH8 = target: T10, RADIL, Q96JH8
T10 sequence (Q96JH8 971-1071, limits assumed, looked up): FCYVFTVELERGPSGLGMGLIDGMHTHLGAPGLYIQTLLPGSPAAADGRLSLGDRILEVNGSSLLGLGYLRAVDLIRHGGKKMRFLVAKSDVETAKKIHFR

SIPA1L2, Q9P2F8 = target: T11, SIPA1L2, Q9P2F8
T11 sequence (Q9P2F8 945-1036, limits assumed, looked up): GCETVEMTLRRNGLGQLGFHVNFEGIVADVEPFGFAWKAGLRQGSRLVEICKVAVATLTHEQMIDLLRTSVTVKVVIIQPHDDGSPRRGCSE

[1] = plain residues with an end cap or a label only (N-terminal biotin on a linker: ado-ado)
[2] = plain residues with an end cap or a label only (N-terminal biotin on a linker: ahx)

pKd (APBA2_2, Q99767; [1]): below the threshold
pKd (ARHGEF12, Q9NZN5-2; [1]): below the threshold
pKd (CARD11, Q9BXL7; [1]): below the threshold
pKd (CASK, O14936; [1]): 3.55
pKd (DFNB31_1, Q9P202; [1]): below the threshold
pKd (FRMPD2_2, Q68DX3; [1]): 3.62
pKd (GRID2IP_1, A4D2P6; [1]): below the threshold
pKd (GRID2IP_2, A4D2P6; [1]): below the threshold
pKd (GRIP1_2, Q9Y3R0; [1]): below the threshold
pKd (GRIP1_3, Q9Y3R0; [1]): below the threshold
pKd (GRIP1_7, Q9Y3R0; [1]): 4.55
pKd (GRIP2_4, Q9C0E4; [1]): below the threshold
pKd (IL16_1, Q14005; [1]): below the threshold
pKd (Inadl_6, Q8NI35; [1]): below the threshold
pKd (Inadl_9, Q8NI35; [1]): 4.41
pKd (LIMK2, P53671; [1]): below the threshold
pKd (LNX1_2, Q8TBB1; [1]): 4
pKd (LNX2_3, Q8N448; [1]): below the threshold
pKd (MAGI1_1, Q96QZ7; [1]): below the threshold
pKd (MAGI2_2, Q86UL8; [1]): 4.02
pKd (MAGI2_5, Q86UL8; [1]): below the threshold
pKd (MPDZ_12, O75970; [1]): below the threshold
pKd (NHERF3_3, Q5T2W1; [1]): below the threshold
pKd (NHERF4_4, Q86UT5; [1]): below the threshold
pKd (PDLIM1, O00151; [1]): below the threshold
pKd (RADIL, Q96JH8; [1]): 4.51
pKd (SIPA1L2, Q9P2F8; [1]): below the threshold
Binder: QKNKDKEYYV [NRXN3_rs746444206, Q9Y4C0]

pKd (APBA2_2, Q99767; [2]): below the threshold
pKd (ARHGEF12, Q9NZN5-2; [2]): below the threshold
pKd (CARD11, Q9BXL7; [2]): below the threshold
pKd (CASK, O14936; [2]): below the threshold
pKd (DFNB31_1, Q9P202; [2]): below the threshold
pKd (FRMPD2_2, Q68DX3; [2]): below the threshold
pKd (GRID2IP_1, A4D2P6; [2]): below the threshold
pKd (GRID2IP_2, A4D2P6; [2]): below the threshold
pKd (GRIP1_2, Q9Y3R0; [2]): below the threshold
pKd (GRIP1_3, Q9Y3R0; [2]): below the threshold
pKd (GRIP1_7, Q9Y3R0; [2]): 3.48
pKd (GRIP2_4, Q9C0E4; [2]): below the threshold
pKd (IL16_1, Q14005; [2]): below the threshold
pKd (Inadl_6, Q8NI35; [2]): below the threshold
pKd (Inadl_9, Q8NI35; [2]): below the threshold
pKd (LIMK2, P53671; [2]): below the threshold
pKd (LNX1_2, Q8TBB1; [2]): below the threshold
pKd (LNX2_3, Q8N448; [2]): below the threshold
pKd (MAGI1_1, Q96QZ7; [2]): below the threshold
pKd (MAGI2_2, Q86UL8; [2]): below the threshold
pKd (MAGI2_5, Q86UL8; [2]): below the threshold
pKd (MPDZ_12, O75970; [2]): below the threshold
pKd (NHERF3_3, Q5T2W1; [2]): below the threshold
pKd (NHERF4_4, Q86UT5; [2]): below the threshold
pKd (PDLIM1, O00151; [2]): 3.77
pKd (RADIL, Q96JH8; [2]): below the threshold
pKd (SIPA1L2, Q9P2F8; [2]): below the threshold
Binder: RNCSTNDSLL [ADRB2, P07550]

pKd (APBA2_2, Q99767; [1]): below the threshold
pKd (ARHGEF12, Q9NZN5-2; [1]): 4.28
pKd (CARD11, Q9BXL7; [1]): below the threshold
pKd (CASK, O14936; [1]): below the threshold
pKd (DFNB31_1, Q9P202; [1]): 4.78
pKd (FRMPD2_2, Q68DX3; [1]): below the threshold
pKd (GRID2IP_1, A4D2P6; [1]): below the threshold
pKd (GRID2IP_2, A4D2P6; [1]): 4.05
pKd (GRIP1_2, Q9Y3R0; [1]): below the threshold
pKd (GRIP1_3, Q9Y3R0; [1]): below the threshold
pKd (GRIP1_7, Q9Y3R0; [1]): below the threshold
pKd (GRIP2_4, Q9C0E4; [1]): below the threshold
pKd (IL16_1, Q14005; [1]): below the threshold
pKd (Inadl_6, Q8NI35; [1]): below the threshold
pKd (Inadl_9, Q8NI35; [1]): below the threshold
pKd (LIMK2, P53671; [1]): below the threshold
pKd (LNX1_2, Q8TBB1; [1]): below the threshold
pKd (LNX2_3, Q8N448; [1]): below the threshold
pKd (MAGI1_1, Q96QZ7; [1]): below the threshold
pKd (MAGI2_2, Q86UL8; [1]): 4.48
pKd (MAGI2_5, Q86UL8; [1]): below the threshold
pKd (MPDZ_12, O75970; [1]): 3.76
pKd (NHERF3_3, Q5T2W1; [1]): below the threshold
pKd (NHERF4_4, Q86UT5; [1]): below the threshold
pKd (PDLIM1, O00151; [1]): below the threshold
pKd (RADIL, Q96JH8; [1]): below the threshold
pKd (SIPA1L2, Q9P2F8; [1]): below the threshold
Binder: RGGFGRQTQI [NCBP2L, A6PVI3]
